Source: patent US20230082465A1 (published 2023)

Assays:
Fragment DD from fibrin = molecular target: T1, Fragment DD from fibrin (human, UniProt P02671 124-216; P02675 164-491; P02679 89-437); test: BLI
T1 chain 1: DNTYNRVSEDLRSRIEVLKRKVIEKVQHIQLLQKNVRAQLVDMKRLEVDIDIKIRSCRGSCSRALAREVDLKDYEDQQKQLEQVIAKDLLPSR
T1 chain 2: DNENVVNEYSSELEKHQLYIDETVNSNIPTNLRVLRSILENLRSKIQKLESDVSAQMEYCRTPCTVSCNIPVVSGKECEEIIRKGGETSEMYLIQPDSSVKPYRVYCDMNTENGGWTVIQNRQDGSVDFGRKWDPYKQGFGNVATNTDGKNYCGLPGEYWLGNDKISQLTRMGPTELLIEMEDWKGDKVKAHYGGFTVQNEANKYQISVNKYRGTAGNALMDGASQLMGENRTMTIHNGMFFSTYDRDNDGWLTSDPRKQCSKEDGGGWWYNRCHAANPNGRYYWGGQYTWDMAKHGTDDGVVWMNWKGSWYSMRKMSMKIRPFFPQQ
T1 chain 3: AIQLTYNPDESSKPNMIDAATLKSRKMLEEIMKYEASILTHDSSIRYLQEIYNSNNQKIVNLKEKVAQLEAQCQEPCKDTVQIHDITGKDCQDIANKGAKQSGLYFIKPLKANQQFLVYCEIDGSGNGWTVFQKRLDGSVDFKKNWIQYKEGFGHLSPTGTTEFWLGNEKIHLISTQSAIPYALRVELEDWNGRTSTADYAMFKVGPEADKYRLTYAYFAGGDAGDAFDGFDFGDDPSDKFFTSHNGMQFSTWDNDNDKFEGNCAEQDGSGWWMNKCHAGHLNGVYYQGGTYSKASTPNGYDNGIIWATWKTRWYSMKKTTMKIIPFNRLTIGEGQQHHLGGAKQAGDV

Fibrinogen Fragment D = molecular target: T2, Fibrinogen Fragment D (human, UniProt P02671 124-216; P02675 164-491; P02679 89-437); test: BLI
T2 chain 1: T1 chain 1
T2 chain 2: T1 chain 2
T2 chain 3: T1 chain 3

B1: recombinant antibody #12 (antibody, V domains shown)
VH: QVQLQQPGAEVVRPGASVKLSCKASGYSFTSYWIHWLKQGPHQGLEWIGRIDPDDSETHYNQKFKDKALLTVDKSSSTAYMQLRSLTSEDSAVYYCARTNWDAWFAYWGQGTLVTVSA
VL: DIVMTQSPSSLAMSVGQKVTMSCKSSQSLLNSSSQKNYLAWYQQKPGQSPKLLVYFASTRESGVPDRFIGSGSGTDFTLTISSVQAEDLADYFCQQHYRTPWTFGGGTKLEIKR
A Kd (Fragment DD from fibrin) of 0.417 nM and a Kd (Fibrinogen Fragment D) of 36.8 nM were found for B1 in this work.
